Reference: the supplement of paper PMC9233669
Fewer inactive variants are shown than the library holds.

Experiments:
[1] = test system: biotinyl-Met-oxazolone; experiment: self-aminoacylation, catalytic enhancement (BMO) (fold over background); higher = more active; k-Seq, kA / k0A0; sequences stand for … in GGGAAUGGAUCCACAUCUACGAAUUC…UUCACUGCAGACUUGACGAAGCUG
In short: (§1)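 Working in 50 μL HEPES/NaCl/KCl/MgCl2/CaCl2 buffer with 5% acetonitrile at pH 6.9–7.0, mutagenized RNA pools (0.43 μM; 21-nt variable region) were reacted with 2–1250 μM of each biotinyl-aminoacyl-oxazolone for 90 minutes at room temperature. Streptavidin capture followed, with quantification by triplicate qPCR and Illumina sequencing. Catalytic enhancement is reported as median kA over the uncatalyzed rate, the low-activity peak of a bimodal Gaussian fit to the data.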

[2] = test system: biotinyl-Trp-oxazolone; experiment: self-aminoacylation, catalytic enhancement (BWO) (fold over background); higher = more active; k-Seq, kA / k0A0; sequences stand for … in GGGAAUGGAUCCACAUCUACGAAUUC…UUCACUGCAGACUUGACGAAGCUG
In short: as §1

[3] = test system: biotinyl-Phe-oxazolone; experiment: self-aminoacylation, catalytic enhancement (BFO) (fold over background); higher = more active; k-Seq, kA / k0A0; sequences stand for … in GGGAAUGGAUCCACAUCUACGAAUUC…UUCACUGCAGACUUGACGAAGCUG
In short: as §1

[4] = test system: biotinyl-Leu-oxazolone; experiment: self-aminoacylation, catalytic enhancement (BLO) (fold over background); higher = more active; k-Seq, kA / k0A0; sequences stand for … in GGGAAUGGAUCCACAUCUACGAAUUC…UUCACUGCAGACUUGACGAAGCUG
In short: as §1

[5] = test system: biotinyl-Val-oxazolone; experiment: self-aminoacylation, catalytic enhancement (BVO) (fold over background); higher = more active; k-Seq, kA / k0A0; sequences stand for … in GGGAAUGGAUCCACAUCUACGAAUUC…UUCACUGCAGACUUGACGAAGCUG
In short: as §1

[6] = test system: biotinyl-Ile-oxazolone; experiment: self-aminoacylation, catalytic enhancement (BIO) (fold over background); higher = more active; k-Seq, kA / k0A0; sequences stand for … in GGGAAUGGAUCCACAUCUACGAAUUC…UUCACUGCAGACUUGACGAAGCUG
In short: as §1

| Sequence | self-aminoacylation [1] | self-aminoacylation [2] | self-aminoacylation [3] | self-aminoacylation [4] | self-aminoacylation [5] | self-aminoacylation [6] |
| --- | --- | --- | --- | --- | --- | --- |
| CUACUACAAACAAUGGGUCUG [Fam1A.1 aminoacylation ribozyme variant] | 1.37 | 1.69 | 0.955 | 1.15 | 1.14 | 1.07 |
| CUACUACAAACUAUCGGUCUG [Fam1A.1 aminoacylation ribozyme variant] | 0.949 | 0.717 | 0.752 | 0.713 | 0.839 | 0.869 |
| CUACUCCAAACAAACGGUCUG [Fam1A.1 aminoacylation ribozyme variant] | 0.531 | 0.918 | 1.09 | 0.71 | 0.981 | 0.816 |
| CUACUCCAAACAAUCGAUCUG [Fam1A.1 aminoacylation ribozyme variant] | 0.48 | 0.384 | 0.831 | 0.533 | 0.661 | 0.704 |
| CUACUCCAAACAAUCGGACUG [Fam1A.1 aminoacylation ribozyme variant] | 0.762 | 0.909 | 1.13 | 0.6 | 0.711 | 0.74 |
| CUACUCCAAACAAUUGGUCUG [Fam1A.1 aminoacylation ribozyme variant] | 1.09 | 0.642 | 0.67 | 1.02 | 1.03 | 1.13 |
| CUACUCCAAACACUCGGUCUG [Fam1A.1 aminoacylation ribozyme variant] | 0.93 | 1.52 | 1.15 | 1.03 | 0.962 | 1.12 |
| CUACUCCAAACCAUCGGUCUG [Fam1A.1 aminoacylation ribozyme variant] | 0.961 | 1.01 | 1.16 | 1.03 | 0.971 | 1.1 |
| CUACUCCAAAGAAUCGGUCUG [Fam1A.1 aminoacylation ribozyme variant] | 0.731 | 0.807 | 0.807 | 1.03 | 0.764 | 0.927 |
| CUACUCCAGACAAUCGGUCUG [Fam1A.1 aminoacylation ribozyme variant] | 1.29 | 0.923 | 0.42 | 1.07 | 1.14 | 1 |
| CUACUCCAUACAAUCGGUCUG [Fam1A.1 aminoacylation ribozyme variant] | 0.719 | 0.549 | 0.859 | 0.628 | 0.751 | 0.833 |
| CUACUCUAAACAAUCGGUCUG [Fam1A.1 aminoacylation ribozyme variant] | 0.776 | 0.651 | 0.77 | 0.727 | 0.873 | 0.808 |
| CUACUGAAAACAAUCGGUCUG [Fam1A.1 aminoacylation ribozyme variant] | 0.735 | 0.78 | 0.542 | 0.708 | 0.706 | 0.84 |
| CUACUGCCAACAAUCGGUCUG [Fam1A.1 aminoacylation ribozyme variant] | 0.773 | 0.531 | 0.775 | 0.64 | 0.744 | 0.744 |
| CUACUUAAAACAAUCGGUCUU [Fam1A.1 aminoacylation ribozyme variant] | 0.799 | 0.524 | 0.533 | 0.617 | 0.706 | 0.742 |
| CUACUUAAAACAAUCGGUUUG [Fam1A.1 aminoacylation ribozyme variant] | 0.718 | 0.596 | 0.655 | 0.621 | 0.627 | 0.672 |
| CUACUUAAAACAGUCGGUCUG [Fam1A.1 aminoacylation ribozyme variant] | 0.742 | 0.454 | 0.624 | 1.05 | 0.78 | 0.799 |
| CUACUUCAAAAAAGCGGUCUG [Fam1A.1 aminoacylation ribozyme variant] | 1.02 | 0.633 | 0.451 | 0.966 | 0.801 | 0.999 |
| CUACUUCAAAAAAUCCGUCUG [Fam1A.1 aminoacylation ribozyme variant] | 0.854 | 0.897 | 1.02 | 0.682 | 0.945 | 0.834 |
| CUACUUCAAAAAAUCGGUCUG [Fam1A.1 aminoacylation ribozyme variant] | 0.758 | 7.37 | 11.8 | 0.92 | 0.795 | 1 |
| CUACUUCAAAAAAUCGGUCUU [Fam1A.1 aminoacylation ribozyme variant] | 0.966 | 4.11 | 5.8 | 1.05 | 0.807 | 1.02 |
| CUACUUCAAAAAAUCUGUCUG [Fam1A.1 aminoacylation ribozyme variant] | 0.589 | 0.797 | 1.36 | 0.61 | 0.699 | 0.84 |
| CUACUUCAAACAAACAGUCUG [Fam1A.1 aminoacylation ribozyme variant] | 0.54 | 0.534 | 0.8 | 0.671 | 0.728 | 0.864 |
| CUACUUCAAACAAACGAUCUG [Fam1A.1 aminoacylation ribozyme variant] | 0.728 | 0.336 | 0.828 | 0.569 | 0.779 | 0.693 |
| CUACUUCAAACAAACGGACUG [Fam1A.1 aminoacylation ribozyme variant] | 0.473 | 0.574 | 0.548 | 0.546 | 0.718 | 0.684 |
